In patent US20070232789A1:

Experiments:
[1] = biological target: low-density lipoprotein receptor-related protein (LRP), purified (human) (UniProt Q07954); assay: homologous displacement of ^125I-fVIII (1 nM) by unlabeled fVIII on LRP-coated wells, LIGAND fit
Target sequence in this assay (Q07954 20-4544): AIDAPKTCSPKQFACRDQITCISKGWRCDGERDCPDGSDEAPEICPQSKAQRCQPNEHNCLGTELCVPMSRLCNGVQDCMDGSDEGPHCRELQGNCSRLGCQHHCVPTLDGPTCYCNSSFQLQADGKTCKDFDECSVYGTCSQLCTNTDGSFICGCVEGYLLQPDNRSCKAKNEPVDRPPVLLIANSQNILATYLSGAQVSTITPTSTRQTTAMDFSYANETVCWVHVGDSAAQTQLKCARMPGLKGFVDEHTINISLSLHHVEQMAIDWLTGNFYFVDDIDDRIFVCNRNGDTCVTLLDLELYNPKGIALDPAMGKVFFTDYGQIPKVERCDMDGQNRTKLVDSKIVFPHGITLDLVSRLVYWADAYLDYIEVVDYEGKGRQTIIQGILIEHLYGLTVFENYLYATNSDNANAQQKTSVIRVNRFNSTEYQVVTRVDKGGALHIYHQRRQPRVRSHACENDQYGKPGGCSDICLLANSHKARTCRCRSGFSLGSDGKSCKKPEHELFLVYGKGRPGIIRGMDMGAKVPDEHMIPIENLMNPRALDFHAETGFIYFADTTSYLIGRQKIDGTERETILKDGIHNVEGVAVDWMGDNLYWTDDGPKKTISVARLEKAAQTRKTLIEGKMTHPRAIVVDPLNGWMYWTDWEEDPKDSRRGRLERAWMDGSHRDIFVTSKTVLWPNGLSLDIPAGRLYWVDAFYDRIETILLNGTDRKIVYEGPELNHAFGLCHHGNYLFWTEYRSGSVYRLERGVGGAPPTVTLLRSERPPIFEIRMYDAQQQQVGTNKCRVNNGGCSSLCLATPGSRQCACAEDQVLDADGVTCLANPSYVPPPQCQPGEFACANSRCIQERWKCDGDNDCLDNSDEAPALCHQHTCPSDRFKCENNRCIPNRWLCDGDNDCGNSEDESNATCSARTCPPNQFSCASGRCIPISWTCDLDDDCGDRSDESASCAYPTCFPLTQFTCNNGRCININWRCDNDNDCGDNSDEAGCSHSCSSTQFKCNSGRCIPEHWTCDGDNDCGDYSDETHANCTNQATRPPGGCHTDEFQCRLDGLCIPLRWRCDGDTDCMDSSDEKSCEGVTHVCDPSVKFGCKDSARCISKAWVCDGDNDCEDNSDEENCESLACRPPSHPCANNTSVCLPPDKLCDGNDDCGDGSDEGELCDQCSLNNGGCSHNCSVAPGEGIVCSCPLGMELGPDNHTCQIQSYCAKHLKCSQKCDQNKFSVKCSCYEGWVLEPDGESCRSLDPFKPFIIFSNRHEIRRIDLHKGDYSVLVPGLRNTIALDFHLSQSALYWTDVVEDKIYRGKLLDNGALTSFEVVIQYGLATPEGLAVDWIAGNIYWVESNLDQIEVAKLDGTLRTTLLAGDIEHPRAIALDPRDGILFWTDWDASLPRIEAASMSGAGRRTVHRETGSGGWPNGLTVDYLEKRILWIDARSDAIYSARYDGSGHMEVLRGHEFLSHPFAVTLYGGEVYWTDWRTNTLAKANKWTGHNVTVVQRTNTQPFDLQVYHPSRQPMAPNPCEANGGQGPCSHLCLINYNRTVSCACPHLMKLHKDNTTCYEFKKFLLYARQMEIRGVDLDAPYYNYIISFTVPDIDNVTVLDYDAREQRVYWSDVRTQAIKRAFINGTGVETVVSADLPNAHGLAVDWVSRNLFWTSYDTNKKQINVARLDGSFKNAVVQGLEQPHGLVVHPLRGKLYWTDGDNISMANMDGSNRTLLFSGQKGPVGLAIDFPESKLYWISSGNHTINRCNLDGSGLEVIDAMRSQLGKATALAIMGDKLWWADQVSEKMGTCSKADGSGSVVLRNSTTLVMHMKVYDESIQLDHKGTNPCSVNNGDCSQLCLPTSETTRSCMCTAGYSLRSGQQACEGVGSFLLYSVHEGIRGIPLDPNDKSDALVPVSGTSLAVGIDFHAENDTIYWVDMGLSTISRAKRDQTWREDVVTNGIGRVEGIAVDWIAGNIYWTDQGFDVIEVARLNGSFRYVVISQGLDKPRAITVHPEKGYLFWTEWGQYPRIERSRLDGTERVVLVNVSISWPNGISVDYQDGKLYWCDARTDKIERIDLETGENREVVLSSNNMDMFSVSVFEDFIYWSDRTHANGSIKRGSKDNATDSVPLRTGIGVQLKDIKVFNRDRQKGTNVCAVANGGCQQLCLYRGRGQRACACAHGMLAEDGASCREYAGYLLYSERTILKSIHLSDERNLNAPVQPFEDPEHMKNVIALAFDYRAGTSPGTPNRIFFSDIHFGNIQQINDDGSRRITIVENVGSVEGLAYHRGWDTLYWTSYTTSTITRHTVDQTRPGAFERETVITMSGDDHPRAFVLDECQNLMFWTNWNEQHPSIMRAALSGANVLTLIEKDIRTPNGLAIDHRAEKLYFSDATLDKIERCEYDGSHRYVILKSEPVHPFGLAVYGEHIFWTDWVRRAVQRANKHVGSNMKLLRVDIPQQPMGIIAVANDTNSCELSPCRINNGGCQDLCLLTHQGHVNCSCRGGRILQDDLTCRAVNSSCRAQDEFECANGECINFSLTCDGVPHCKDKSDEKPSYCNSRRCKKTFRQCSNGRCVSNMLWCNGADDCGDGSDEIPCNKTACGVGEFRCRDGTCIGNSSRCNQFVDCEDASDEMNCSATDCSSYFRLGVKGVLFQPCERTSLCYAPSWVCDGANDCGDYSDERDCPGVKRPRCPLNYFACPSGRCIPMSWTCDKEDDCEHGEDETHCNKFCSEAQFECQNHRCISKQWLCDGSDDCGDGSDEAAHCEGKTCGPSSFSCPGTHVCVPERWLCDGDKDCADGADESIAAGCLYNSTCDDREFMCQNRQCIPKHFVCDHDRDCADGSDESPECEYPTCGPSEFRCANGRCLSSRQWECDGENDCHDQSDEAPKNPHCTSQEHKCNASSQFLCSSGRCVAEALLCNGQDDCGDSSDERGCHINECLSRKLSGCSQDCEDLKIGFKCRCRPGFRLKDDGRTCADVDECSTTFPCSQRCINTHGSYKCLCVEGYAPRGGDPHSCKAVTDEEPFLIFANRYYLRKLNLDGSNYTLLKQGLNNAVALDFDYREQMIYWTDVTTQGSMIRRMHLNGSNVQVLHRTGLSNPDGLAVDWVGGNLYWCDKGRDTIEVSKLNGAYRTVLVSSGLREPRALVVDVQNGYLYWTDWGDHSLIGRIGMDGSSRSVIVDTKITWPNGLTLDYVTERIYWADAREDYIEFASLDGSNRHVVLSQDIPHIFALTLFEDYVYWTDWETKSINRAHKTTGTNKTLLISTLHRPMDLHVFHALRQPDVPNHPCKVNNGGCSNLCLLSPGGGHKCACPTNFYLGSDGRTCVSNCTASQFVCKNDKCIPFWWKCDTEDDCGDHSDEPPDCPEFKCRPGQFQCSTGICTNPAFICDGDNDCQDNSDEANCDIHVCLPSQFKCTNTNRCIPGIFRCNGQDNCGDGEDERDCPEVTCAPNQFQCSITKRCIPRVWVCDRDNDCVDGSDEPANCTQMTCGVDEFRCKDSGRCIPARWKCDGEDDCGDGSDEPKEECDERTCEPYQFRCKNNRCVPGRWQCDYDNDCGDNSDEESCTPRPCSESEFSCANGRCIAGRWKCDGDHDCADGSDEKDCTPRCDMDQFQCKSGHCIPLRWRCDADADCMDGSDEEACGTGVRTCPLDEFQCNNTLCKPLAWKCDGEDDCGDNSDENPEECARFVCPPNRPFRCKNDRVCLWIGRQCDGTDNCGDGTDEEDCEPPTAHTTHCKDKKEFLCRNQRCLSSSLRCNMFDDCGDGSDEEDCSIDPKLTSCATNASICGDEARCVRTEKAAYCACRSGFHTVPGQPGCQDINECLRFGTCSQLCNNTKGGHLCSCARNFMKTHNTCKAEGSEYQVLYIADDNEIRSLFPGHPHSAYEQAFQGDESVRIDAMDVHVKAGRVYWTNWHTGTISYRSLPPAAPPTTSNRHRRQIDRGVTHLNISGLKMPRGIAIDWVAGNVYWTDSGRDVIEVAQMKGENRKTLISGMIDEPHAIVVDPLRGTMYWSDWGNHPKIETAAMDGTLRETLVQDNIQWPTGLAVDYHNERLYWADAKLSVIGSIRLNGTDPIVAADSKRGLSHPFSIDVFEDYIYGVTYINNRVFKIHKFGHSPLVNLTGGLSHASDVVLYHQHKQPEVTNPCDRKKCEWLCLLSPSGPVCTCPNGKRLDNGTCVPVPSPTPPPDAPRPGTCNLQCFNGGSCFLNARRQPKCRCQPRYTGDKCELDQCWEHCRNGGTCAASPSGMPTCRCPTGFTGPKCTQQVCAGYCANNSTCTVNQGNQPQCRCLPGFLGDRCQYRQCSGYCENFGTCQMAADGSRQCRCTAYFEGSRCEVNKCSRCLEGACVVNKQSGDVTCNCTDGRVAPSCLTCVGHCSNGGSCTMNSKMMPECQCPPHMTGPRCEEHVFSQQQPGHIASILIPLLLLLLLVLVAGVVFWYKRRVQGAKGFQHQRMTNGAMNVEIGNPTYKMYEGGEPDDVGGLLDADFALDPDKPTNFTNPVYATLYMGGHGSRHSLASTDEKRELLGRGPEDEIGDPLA

[2] = biological target: low-density lipoprotein receptor-related protein (LRP), purified (human) (UniProt Q07954); assay: homologous ligand displacement: 125I-fVIII (1 nM) on LRP-coated microtiter wells, competitor unlabeled fVIII
Target sequence in this assay (Q07954 20-4544): as above

[3] = biological target: low-density lipoprotein receptor-related protein (LRP), purified (human) (UniProt Q07954); assay: homologous displacement on LRP-coated wells
Target sequence in this assay (Q07954 20-4544): as above

[4] = biological target: A1/A3-C1-C2 heterodimer of factor VIII, plasma-derived (human) (UniProt P00451); assay: cell-based or functional assay
[5] = biological target: low-density lipoprotein receptor-related protein (LRP), purified (human) (UniProt Q07954); assay: SPR, BIAcore 3000, one-site model, KD = koff/kon
Target sequence in this assay (Q07954 20-4544, form in doubt): as the sequence (Q07954 20-4544) above

[6] = biological target: low-density lipoprotein receptor-related protein (LRP), purified (human) (UniProt Q07954); assay: SPR, BIAcore 3000
Target sequence in this assay (Q07954 20-4544, form in doubt): as the sequence (Q07954 20-4544) above

Row | Substance | Kd [1] [nM] | IC50 (read off the curve) [2] [nM] | percent of binding competed by an excess of unlabeled fVIII [3] [%] | Activity of reconstituted FVIIIa (% of wt activity) (% of wt activity) [4] | Kd [5] [nM] | fold decrease of affinity against wt-A2 [6] [fold]
1 | factor VIII purified from therapeutic concentrates (Method M, American Red Cross), P00451 20-1667; P00451 1668-2351 | 116 | 100 | > 90 | – | – | –
2 | recombinant A2 mutant #5 (Lys-466 to Ala) (from UniProt P00451 392-759) | – | – | – | 130 | 600 | 28
3 | recombinant A2 mutant #6 (Arg-471 to Ala) (from UniProt P00451 392-759) | – | – | – | 34.6 | 400 | 19

Continued, values first:

Row | Kd [1] [nM] | IC50 (read off the curve) [2] [nM] | percent of binding competed by an excess of unlabeled fVIII [3] [%] | Activity of reconstituted FVIIIa (% of wt activity) (% of wt activity) [4] | Kd [5] [nM] | fold decrease of affinity against wt-A2 [6] [fold] | Substance
4 | – | – | – | 365 | 18 | – | recombinant A2 mutant #2 (Lys-377 to Ala) (from UniProt P00451 392-759)
5 | – | – | – | 417 | 19 | – | recombinant A2 mutant #3 (His-378 to Ala) (from UniProt P00451 392-759)
6 | – | – | – | 291 | 47 | – | recombinant A2 mutant #4 (Lys-380 to Ala) (from UniProt P00451 392-759)
7 | – | – | – | 64.9 | 320 | 15 | recombinant A2 mutant #7 (Arg-484 to Ala) (from UniProt P00451 392-759)
